Experimental data taken from article PMC2615627.

What was measured:
[1] = target: T1, hRPA (replication protein A heterotrimer RPA1+RPA2+RPA3) (human (Homo sapiens), UniProt P27694;P15927;P35244 1-616;1-270;1-121); test: EMSA
[2] = target: T1, hRPA (replication protein A …); test: EMSA; remark: listed apart in the source

T1 sequence (P27694 whole entry, chain 1 of 3): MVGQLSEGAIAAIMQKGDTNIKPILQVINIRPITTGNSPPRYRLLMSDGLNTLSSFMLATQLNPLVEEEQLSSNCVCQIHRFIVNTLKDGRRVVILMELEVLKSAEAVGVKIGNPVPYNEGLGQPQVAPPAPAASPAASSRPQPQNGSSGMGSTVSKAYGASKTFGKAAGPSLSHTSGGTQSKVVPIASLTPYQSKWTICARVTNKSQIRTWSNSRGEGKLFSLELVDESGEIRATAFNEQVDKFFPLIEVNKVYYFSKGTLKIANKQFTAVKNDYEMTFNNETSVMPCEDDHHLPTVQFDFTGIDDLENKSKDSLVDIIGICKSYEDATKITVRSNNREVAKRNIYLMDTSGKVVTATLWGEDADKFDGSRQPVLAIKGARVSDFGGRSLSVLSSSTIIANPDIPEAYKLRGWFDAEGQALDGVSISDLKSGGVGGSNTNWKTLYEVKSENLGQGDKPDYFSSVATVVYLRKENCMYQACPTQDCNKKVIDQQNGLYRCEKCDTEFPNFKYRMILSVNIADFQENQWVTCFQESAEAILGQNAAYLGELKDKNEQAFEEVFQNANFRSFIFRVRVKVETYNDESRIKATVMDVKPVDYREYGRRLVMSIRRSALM
T1 sequence (P15927 whole entry, chain 2 of 3): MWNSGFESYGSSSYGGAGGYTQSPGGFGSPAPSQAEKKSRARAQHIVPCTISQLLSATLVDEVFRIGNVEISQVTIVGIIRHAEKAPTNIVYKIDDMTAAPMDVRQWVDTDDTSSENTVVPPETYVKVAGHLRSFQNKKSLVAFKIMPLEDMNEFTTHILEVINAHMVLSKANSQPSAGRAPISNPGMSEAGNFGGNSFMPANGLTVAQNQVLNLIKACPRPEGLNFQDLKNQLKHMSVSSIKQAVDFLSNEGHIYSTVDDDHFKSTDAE
T1 sequence (P35244 whole entry, chain 3 of 3): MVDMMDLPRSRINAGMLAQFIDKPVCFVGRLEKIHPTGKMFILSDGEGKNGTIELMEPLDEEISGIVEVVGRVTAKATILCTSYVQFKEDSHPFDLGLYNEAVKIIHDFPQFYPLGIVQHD

| Binder | binding result [1] | binding signal [2] |
| --- | --- | --- |
| GATCTCGGCGACGCACACGCGTCCTAACTCG (ssDNA) [Oligo 31] | binds |  |
| TTTTTTTTTTTTTTTTTTTTTTTTTTTTTTT (ssDNA) [poly(dT)31] |  | ~10 fold higher affinity than Oligo 31 |
